Laboratory results reported in patent publication US7135457B1, “Random peptides that bind to gastro-intestinal tract (GIT) transport receptors and related methods” (Cytogen Corporation, priority 1997, dated 2006).
Square brackets hold non-standard residues; d marks the D form. Peptide text beside a SMILES is read from it. * marks the point of attachment. Dansyl = CN(C)c1cccc2c(S(=O)(=O)*)cccc12

Key:
[1] = test system: fixed Caco-2 or C2BBe1 cells; assay: ELISA of GST fusion proteins on fixed Caco-2 or C2BBe1 cells; type: binding
Method: Fixed Caco-2, C2BBe1, and A431 cell plates were prepared by growing cells on tissue culture treated microtiter plates. When cells were confluent, plates were fixed with 10% formaldehyde, washed twice with PBS and stored with 0.5% BSA-PBS at −20° C. […] The standard ELISA procedure was followed at this point.
The standard ELISA procedure was modified as follows. GST proteins were diluted to an appropriate concentration in PBS containing 1% BSA and 0.05% Tween20 (1% BPT), titered and incubated one hour at room temperature. Following five washes an anti-GST monoclonal antibody was added (Sigma, St. Louis Clone GST-2 diluted 1:10,000 in 1% BPT) and incubated one hour. After five more washes goat anti-mouse IgG2b-HRP was added (Southern Biotechnology Associates Inc., Birmingham, Ala., diluted 1:4000 in 1% BPT) and incubated one hour. After five washes plates were developed with TMB peroxidase substrate (Kirkegard and Perry, Gaithersburg, Md.). All data is presented with background binding subtracted.

[2] = test system: P100 membrane fraction derived from Caco-2 cells; assay: GST-PAX2 peptides relative binding to P100 fractions; conditions: 20 μg/ml; binding to plastic subtracted; GST-HAX42 = 1.00
Method: The peptides and proteins were analyzed by a dansylated peptide ELISA method in which 96 well plates were coated overnight at 4° C. with 100 μl/well coating protein (normally 100 μg/ml P100 membrane fraction) in 0.05M carbonate buffer pH9.6. Nonspecific binding was blocked using 200 μl/well, 2% Marvel/PBS for 2 hours at 37° C. prior to incubation with dansylated peptides. The plates were washed three times with PBS/0.05% Tween 20 and after each subsequent incubation step. […] A buffer blank control was included to ensure that background binding to plastic was not due to the antibodies used in the assay system. […] The plates were then incubated with an anti-mouse λ-HRP conjugated antibody (Southern Biotech 1060-05) at a 1:10,000 dilution in blocking solution, 100 μl/well for 1 hour at room temperature. Plates were developed using 75 μl/well Bionostics TMB substrate and incubated for approximately 10 minutes. The developing reaction was stopped using Bionostics Red Stop solution (25 μl/well), and the optical density of the plates was read at 650 nm.
After subtraction of the GST-peptide binding to plastic from P100 binding values, the binding of GST-PAX2 peptides were represented as a ratio of GST-HAX42 binding to P100, which was given the arbitrary value of 1.00. The following ratios were determined from binding to P100 of GST-peptides at a peptide concentration of 20 μg/ml. Bold denotes positive binding to the P100 membrane fraction.

fixed Caco-2 cells = assay: Effect of thrombin cleavage on binding of GST-peptide fusions to fixed Caco-2 cells
Method: Binding of intact and thrombin-cleaved GST-peptide fusions to fixed Caco-2 cells was compared.
Thirty micrograms of each GST-peptide was treated with bovine thrombin (1μ/ml; 0.4 NIH units; Sigma CN.T9681) for 18 h at room temperature in 20 mM Tris-HCl pH8.0, 150 mM NaCl, 2.5 mM CaCl2. Controls were similarly treated without addition of thrombin. Ten micrograms of each GST-peptide fusion was removed for PAGE analysis, and 10 μg of fusions were added in duplicate to the fixed Caco-2 cells before 5-fold serial dilutions (1% BPT diluent). The fusions were allowed to bind for 1 h at room temperature. Following 6 washes with 1% BPT, binding was assayed by ELISA.

[3] = Peptide stability in simulated intestinal fluid (SIF); type: in vitro ADME; conditions: rank of relative stability to SIF, 1 = most stable
Method: The relative stability for ZElan031, ZElan053 and ZElan054 was determined in simulated intestinal fluid (SIF) SIF was made by dissolving 100 mg of pancreatin (Sigma cat# P-5 1625, lot# 122H0812) in 8.4 ml of phosphate stock solution, adjusting the pH to 7.5 with 0.2N NaOH and adjusting the volume to 10 ml with water.
Peptide (3.25 mg) was dissolved in 3.25 ml of 10,000 fold diluted SIF solution at 37° C. Aliquots (0.7 ml) of the digestion solution were then withdrawn at <1 min, 1 h, 3 h, and 21 h or 24 h. The samples were quickly passed through a syringe filter (Millipore Millex-GV 0.22 μm, part# SLGV025LS, lot# H2BM95250) and 300 μL of the filtered solution was immediately injected onto a Hewlett-Packard HPLC system equipped with a C-8 column (Applied Biosystems column and guard column: column-p/n 0711-0023 Spheri-5 ODS 5 μm, 220×4.6 mm). The products were eluted at 1.5 ml/min using an acetonitrile-water gradient. The major fluorescent peaks were collected, lyopholized and identified by MS analysis.

BSA = BSA (Bos taurus, UniProt P02769); assay: Phage ELISA on BSA (background control protein); type: binding
Chain of BSA (P02769 25-607): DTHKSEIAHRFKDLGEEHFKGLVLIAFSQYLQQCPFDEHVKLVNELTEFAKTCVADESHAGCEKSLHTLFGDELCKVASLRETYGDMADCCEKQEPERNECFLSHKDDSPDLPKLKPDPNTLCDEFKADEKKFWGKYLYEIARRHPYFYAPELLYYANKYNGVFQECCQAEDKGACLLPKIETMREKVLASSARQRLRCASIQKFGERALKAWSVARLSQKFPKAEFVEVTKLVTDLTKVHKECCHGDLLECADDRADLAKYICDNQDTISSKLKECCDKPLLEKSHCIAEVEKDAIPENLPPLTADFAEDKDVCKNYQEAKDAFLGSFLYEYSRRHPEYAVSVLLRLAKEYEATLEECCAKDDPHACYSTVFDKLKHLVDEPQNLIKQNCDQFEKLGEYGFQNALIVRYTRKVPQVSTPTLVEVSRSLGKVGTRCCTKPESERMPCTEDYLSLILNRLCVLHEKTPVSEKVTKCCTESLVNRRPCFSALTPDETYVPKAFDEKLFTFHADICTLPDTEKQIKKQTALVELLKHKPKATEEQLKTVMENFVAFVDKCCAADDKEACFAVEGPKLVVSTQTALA
Method: 96 well plates were coated overnight with GIT receptor, BSA and, optionally, IDE (insulin degrading enzyme, an irrelevant His-fusion protein) or hTF. The plates were blocked for one hour with 0.5% BSA-PBS. After clarification, the amplified phage were diluted 1:100 in 1% BSA plus 0.05% Tween 20 in PBS and added to the plates. Following incubation of the plates on a rotator for 1 to 2 hours, the plates were washed 5 times with 1% BSA plus 0.05% Tween 20 in PBS. Dilute anti-M13-HRP conjugate (anti-M13 antibody linked to horse radish peroxidase (HRP)) was added to all the wells and the plate was incubated for one hour on a rotator. After the plates were washed 5 times, as described above, TMB substrate was added to the wells. The plates were read at 650 nm absorbance.

[4] = for transport from the GIT closed loop into the portal circulation (in words): text summary of hSI, D2H, HPT1, hPEPT1 pools; for presence in the intestine samples or fractions (in words): text summary of the four pools; for presence in the systemic circulation (in words): text summary of HPT1 and hPEPT1 pools
Method: In particular, phages selected in vitro to each receptor or binding site located in the GIT were amplified in E. coli, PEG-precipitated, resuspended in TBS and the titer of each phage sample was determined by plaquing in E. coli as described above. […] Using the in situ loop model described above, 0.5 ml of preselected phage library solution was injected into the tied-off portion of the duodenum/jejunum. Blood was collected into heparinized tubes from the portal vein at 0, 15, 30, 45 and 60 minutes. A blood sample was taken from the systemic circulation at the end of the experiment. Similarly, the portion of the duodenum/jejunum used for phage injection was taken at the end of the experiment.
Thirty microliters of the collected portal blood (neat and 10^−2, 10^−4, 10^−6 dilutions) was added to 30 μl E. coli K91Kan cells (overnight culture) and incubated at 37° C. for 10 min. Subsequently, 3 ml of top agarose was added and the samples were plated for plaques. One hundred microliters of the collected portal blood was added to 100 μl of E. coli K91Kan. Five milliliters of LB medium was then added and the samples were incubated at 37° C. overnight in a rotating microbial incubator. The E. coli was removed by centrifugation and the amplified phage supernatant samples were either titered directly or were PEG-precipitated, resuspended in TBS and titered. Following titration of the amplified phage, samples containing phage from each set of animals were combined, adjusting the titer of each sample to the same titer, and were plated for plaques on LB agar plates (22 cm^2 square plates). Either 12,000 or 24,000 phage were plated for plaques.
Thirty microliters of the collected systemic blood (neat and 10^−2, 10^−4, 10^−6 dilutions) was added to E. coli K91Kan cells, incubated at 37° C. for 10 min. Three ml of top agarose was then added and the samples were plated for plaques. One hundred microliters of the collected systemic blood was added to 100 μl of E. coli K91Kan, incubated at 37° C. for 10 min. Five milliliters of LB medium was then added and the samples were incubated at 37° C. overnight in a rotating microbial incubator. The E. coli was removed by centrifugation and the amplified phage supernatant samples were either titered directly or were PEG-precipitated, resuspended in TBS and titered. Following titration of the amplified phage, samples containing phage from each set of animals were combined, adjusting the titer of each sample to the same titer, and were plated for plaques on LB agar plates (22 cm^2 square plates). Either 12,000 or 24,000 phage were plated for plaques. The intestinal tissue portion used in each closed loop was excised. […] Alternatively, the tissue (in PBS supplemented with protease inhibitors) was homogenized in an Ultra Thorex homogenizer, washed 3 times in PBS containing protease inhibitors and resuspended in PBS containing protease inhibitors (Int-G samples). In each case, serial dilutions (neat and 10^−2, 10^−4, 10^−6 dilutions) of the tissue homogenate was titered in E. coli.
The phage amplified from the portal blood, systemic blood and intestinal tissue was plated for plaques. […] The filters were air-dried, and the DNA was cross-linked to the filter (UV crosslinking: 2 min, high setting). The filters were incubated in pre-hybridization buffer (6×SSC, 5×Denhardt's solution, 0.1% SDS, 20 μg/ml yeast tRNA) at 40° C.-45° C. for at least 60 min.
Synthetic oligonucleotides, (22-mers), complimentary to regions coding for the receptor or binding sites used to create the preselected phage library, were synthesized (see Table 14 below).
The oligonucleotides (5 pmol) were 5′ end labelled with ^32P-ATP and T4 polynucleotide kinase and approximately 2.5 pmol of labelled oligonucleotide was used in hybridization studies. […] The filters were air-dried and exposed for autoradiography for 15 hours, 24 hours or 72 hours.
Hybridization data for pools from each receptor group of rats was compiled.

[5] = Drug potency, peptide loading and size of coacervated particles; type: physicochemical; conditions: formulation 1 particles (coacervation), blend; for Insulin (insulin potency): coated with the named peptide; for Peptide (level of peptide coated onto the particles): measured by fluorescence
[6] = Crossreactive binding of GST fusions to dansylated peptides

## gst-TNAKHSSHNRRLRTRSRPN [GST-106]
[1]; Caco-2
  binding of truncated GST fusion compared with full-length, fixed Caco-2 cells: bound similarly to full-length PAX2
[2]
  Value: binding to P100 as a ratio of GST-HAX42 binding: 2.71
Fixed Caco-2 cells; Caco-2
  effect of thrombin cleavage on detection of binding to fixed Caco-2 cells: significantly reduced

## C[C@@H](O)[C@H](NC(=O)[C@@H](N)CCCCNS(=O)(=O)c1cccc2c(N(C)C)cccc12)C(=O)N[C@@H](CCCNC(=N)N)C(=O)N[C@@H](CCCCN)C(=O)N[C@@H](CO)C(=O)N[C@@H](CO)C(=O)N[C@@H](CCCNC(=N)N)C(=O)N[C@@H](CO)C(=O)N[C@@H](CC(N)=O)C(=O)N1CCC[C@H]1C(=O)N[C@@H](CCCNC(=N)N)C(=O)NCC(=O)N[C@@H](CCCNC(=N)N)C(=O)N[C@@H](CCCNC(=N)N)C(=O)N[C@@H](Cc1c[nH]cn1)C(=O)N1CCC[C@H]1C(=O)NCC(N)=O [ZElan031] (H-K(Dansyl)TRKSSRSNPRGRRHPG-NH2)
[3]
  Rel. Stab.: 3

## gst-ENANTRKSSRSNPRGRRHP [GST-P31.103]
[1]; Caco-2
  binding of truncated GST fusion compared with full-length, fixed Caco-2 cells: bound almost as well as full-length P31
Fixed Caco-2 cells; Caco-2
  effect of thrombin cleavage on detection of binding to fixed Caco-2 cells: significantly reduced

## SQGSKQCMQYRTGRLTVGSEYGCGMNPARHATPAYPARLLPRYR [DCX11]
BSA; Table 3
  BSA: 0.071 OD
[4]
  transport from the GIT closed loop into the portal circulation (in words): preferably transported
  presence in the intestine samples or fractions (in words): found in the intestinal samples fractions

## SDHALGTNLRSDNAKEPGDYNCCGNGNSTGRKVFNRRRPSAIPT [HAX42]
[5]
  Insulin (insulin potency): 55.9 mg/g
  Peptide (level of peptide coated onto the particles): 2.93 µL/mg
BSA; Table 5
  BSA: 0.071 OD
[4]
  presence in the systemic circulation (in words): found in the portal and systemic circulation
  transport from the GIT closed loop into the portal circulation (in words): found in the portal and systemic circulation

## C[C@@H](O)[C@H](NC(=O)[C@@H](N)CCCCNS(=O)(=O)c1cccc2c(N(C)C)cccc12)C(=O)N[C@@H](CCCNC(=N)N)C(=O)N[C@@H](CCCCN)C(=O)N[C@@H](CO)C(=O)N[C@@H](CO)C(=O)N[C@H](CCCNC(=N)N)C(=O)N[C@@H](CO)C(=O)N[C@@H](CC(N)=O)C(=O)N1CCC[C@H]1C(=O)N[C@@H](CCCNC(=N)N)C(=O)NCC(=O)N[C@H](CCCNC(=N)N)C(=O)N[C@@H](CCCNC(=N)N)C(=O)N[C@@H](Cc1c[nH]cn1)C(=O)N1CCC[C@H]1C(=O)NCC(N)=O [ZElan054, H2N-K(dns)TRKSSrSNPRGrRHPG-CONH2] (H-K(Dansyl)TRKSS[dR]SNPRG[dR]RHPG-NH2)
[3]
  Rel. Stab.: 2

## gst-SDHALGTNLRSDNAKEPGDYNCCGNGNSTGRXVFNRRRPSAIPT [GST-HAX42]
[6]; 5 μg/ml GST fusion
  crossreactivity to ZElan018 (PAX2) and ZElan021 (HAX42): exhibited crossreactivity
[1]; Caco-2
  binding to fixed Caco-2 or C2BBe1 cells relative to GST control: weak to moderate binding
[2]
  Value: binding to P100 as a ratio of GST-HAX42 binding: 1.00

## gst-RVGQCTDSDVRRPWARSCAHQGCGAGTRNSHGCITRPLRQASAH [GST-SNi10]
[1]; anti-GST ELISA
  binding to fixed Caco-2 or C2BBe1 cells relative to GST control: bound
Fixed Caco-2 cells; thrombin 18 h at room temperature
  effect of thrombin cleavage on detection of binding to fixed Caco-2 cells: significantly reduced

## SARDSGPAEDGSRAVRLNGVENANTRKSSRSNPRGRRHP [Peptide P31]
[5]
  Insulin (insulin potency): 67.0 mg/g
  Peptide (level of peptide coated onto the particles): 1.22 µL/mg
BSA; Table 4
  BSA: 0.075 OD
[4]
  presence in the systemic circulation (in words): found in the systemic circulation
  transport from the GIT closed loop into the portal circulation (in words): found in the portal circulation
  presence in the intestine samples or fractions (in words): preferential binding

## gst-STPPSREAYSRPYSVDSDSDTNAKHSSHNRRLRTRSRPN [GST-PAX2]
[6]; 0.5 μg/ml GST fusion
  crossreactive binding to ZElan024 (P31) and ZElan018 (PAX2): no crossreactive binding
[1]; Caco-2
  binding to fixed Caco-2 or C2BBe1 cells relative to GST control: bound
[2]
  Value: binding to P100 as a ratio of GST-HAX42 binding: 1.79
